Substitutions are numbered along the chain they refer to. Blank lines part the entries; values can stand above or below the binder they belong to.
Columns and labels:
Assay in all cases: SPR, Fab over captured mutant LAG-3-Fc;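 note: fc fusion variants captured on anti-human IgG Fc sensor, Fab injected with association then dissociation phases, KD obtained from Langmuir one-to-one fit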
[1] = molecular target: T1, human LAG-3 domain 1-2 Fc fusion, point mutation #24 G77A (human, UniProt P18627 23-266)
T1 construct: not shown: human IgG1 Fc, AA P101-K330
T1 sequence: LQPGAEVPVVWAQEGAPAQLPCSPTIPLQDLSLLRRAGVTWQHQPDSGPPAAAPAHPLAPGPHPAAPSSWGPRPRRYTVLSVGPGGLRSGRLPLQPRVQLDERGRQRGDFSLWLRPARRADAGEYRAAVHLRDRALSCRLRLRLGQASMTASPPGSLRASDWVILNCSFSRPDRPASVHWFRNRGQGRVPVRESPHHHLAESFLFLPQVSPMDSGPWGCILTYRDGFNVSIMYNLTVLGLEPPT

[2] = molecular target: T2, human LAG-3 domain 1-2 Fc fusion, point mutation #36 P89A (human, UniProt P18627 23-266)
T2 construct: not shown: human IgG1 Fc, AA P101-K330
T2 sequence: T1 sequence with A55G, P67A

[3] = molecular target: T3, human LAG-3 domain 1-2 Fc fusion, point mutation #78 R154A (human, UniProt P18627 23-266)
T3 construct: not shown: human IgG1 Fc, AA P101-K330
T3 sequence: T1 sequence with A55G, R132A

[4] = molecular target: T4, human LAG-3 domain 1-2 Fc fusion, point mutation #21 A74S (human, UniProt P18627 23-266)
T4 construct: not shown: human IgG1 Fc, AA P101-K330
T4 sequence: T1 sequence with A52S, A55G

[5] = molecular target: T5, human LAG-3 domain 1-2 Fc fusion, point mutation #49 G105A (human, UniProt P18627 23-266)
T5 construct: not shown: human IgG1 Fc, AA P101-K330
T5 sequence: T1 sequence with A55G, G83A

[6] = molecular target: T6, human LAG-3 domain 1-2 Fc fusion, point mutation #50 P106A (human, UniProt P18627 23-266)
T6 construct: not shown: human IgG1 Fc, AA P101-K330
T6 sequence: T1 sequence with A55G, P84A

[7] = molecular target: T7, human LAG-3 domain 1-2 Fc fusion, point mutation #47 T100A (human, UniProt P18627 23-266)
T7 construct: not shown: human IgG1 Fc, AA P101-K330
T7 sequence: T1 sequence with A55G, T78A

[8] = molecular target: T8, human LAG-3 domain 1-2 Fc fusion, point mutation #3 P43A (human, UniProt P18627 23-266)
T8 construct: not shown: human IgG1 Fc, AA P101-K330
T8 sequence: T1 sequence with P21A, A55G

B3: Fab fragment of antibody 15431 (Fab, V domains shown, not shown: a dimerising Fc or GST)
VH: QVQLQQSGPGLVKPSQTLSLTCAISGDSVSSNSAAWNWIRQSPSRGLEWLGRTYYRSKWYNDYAVSVKSRITINPDTSKNQFSLQLNSVTPEDTAVYYCARDDDWNDFDYWGQGTLVTVSS
VL: EIVLTQSPATLSLSPGERATLSCRASQSVSSYLAWYQQKPGQAPRLLIYDASNRATGIPARFSGSGSGTDFTLTISSLEPEDFAVYYCQQRSNWPLTFGGGTKVEIKR
notes: monomeric Fab made by GingisKHAN digestion of the IgG1
KD mutant/KD wild type [1]: 0.7 fold | KD mutant/KD wild type [2]: 0.8 fold | KD mutant/KD wild type [3]: 1 fold | KD mutant/KD wild type [4]: 0.8 fold | KD mutant/KD wild type [5]: 0.4 fold | binding result [6]: no binding (tested: 300 nM) | binding result [7]: no binding (tested: 300 nM) | binding result [8]: no binding (tested: 300 nM)

B4: Fab fragment of antibody 15011 (Fab, V domains shown, not shown: a dimerising Fc or GST)
VH: EVQLLESGGGLVQPGGSLRLSCAASGFDFRSYAMMWVRQAPGKGLEWVGGINGEVGGSNTYYAPAVKGRATISRDNSKNTLYLQMNSLRAEDTAVYYCVKGAGACGICNDDIDAWGQGTLVTVSS
VL: SYELTQDPAVSVALGQTVRITCSGAGSYAGSYYYGWHQQKPGQAPVTVIYDNDKRPSNIPDRFSGSSSGNTASLTITGAQAEDEADYYCGSTNDNDDGGLFGSGTKVTVLG
notes: as for B3
KD mutant/KD wild type [1]: 0.8 fold | KD mutant/KD wild type [2]: 0.9 fold | KD mutant/KD wild type [3]: 1.2 fold | KD mutant/KD wild type [4]: 0.8 fold | KD mutant/KD wild type [5]: 1.6 fold | KD mutant/KD wild type [6]: 4.6 fold | KD mutant/KD wild type [7]: 0.6 fold | KD mutant/KD wild type [8]: 0.6 fold

The remaining lines, values ahead:

KD mutant/KD wild type [1]: 0.7 fold | KD mutant/KD wild type [2]: 0.8 fold | KD mutant/KD wild type [3]: 0.8 fold | KD mutant/KD wild type [4]: 0.7 fold | KD mutant/KD wild type [5]: 0.4 fold | binding result [6]: no binding (tested: 300 nM) | binding result [7]: no binding (tested: 300 nM) | binding result [8]: no binding (tested: 300 nM)
B1: Fab fragment of antibody 15572 (Fab, V domains shown, not shown: a dimerising Fc or GST)
VH: QLQLQESGPGLVKPSETLSLTCTVSGDSISSSSYYWGWIRQPPGKGLEWIGSIFYSGNTYYNPSLKSRVTISVDTSKNQFSLKLSSVTAADTAVYYCAREDDFLTDYYGAFDIWGQGTMVTVSS
VL: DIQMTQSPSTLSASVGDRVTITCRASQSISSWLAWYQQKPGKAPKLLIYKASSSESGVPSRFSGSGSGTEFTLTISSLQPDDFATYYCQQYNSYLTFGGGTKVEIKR
notes: as for B3

KD mutant/KD wild type [1]: 1 fold | KD mutant/KD wild type [2]: 14.2 fold | KD mutant/KD wild type [3]: 0.8 fold | KD mutant/KD wild type [4]: 1 fold | KD mutant/KD wild type [5]: 1.1 fold | KD mutant/KD wild type [6]: 2.7 fold | KD mutant/KD wild type [7]: 3.9 fold | KD mutant/KD wild type [8]: 3.8 fold
B2: Fab fragment of antibody 15532 (Fab, V domains shown, not shown: a dimerising Fc or GST)
VH: QVQLQQWGAGLLRPSETLSLTCAVYGESFSGYYWNWIRQPPGKGLEWIGEINHSGSTNYNPSLKSRVTISVDTSKTQFSLKLSSVTAADTAVYYCARGWDLLDWNDYWNEYWGQGTLVTVSS
VL: B3 VL
notes: as for B3
